The results in this text go back to patent publication US11485769B2, “Peptides and combination of peptides for use in immunotherapy and methods for generating scaffolds for the use against pancreatic cancer and other cancers” (Immatics Biotechnologies GmbH, priority 2015, dated 2022).

The assay has as its target HLA-A*02:01 (Homo sapiens, UniProt P04439, D140Y/D185E/D98H/E176V/E277Q/G131W/G231S/I119V/I121R/I166T/I218V/L300P/L318F/N151K/N90K/P208A/P217A/Q86G/Q94H/R138H/R169H/T345S). As to the kind of experiment: MHC binding assay (UV-ligand exchange, beta2m ELISA, peptide exchange yield). Particulars: binding to HLA-A*02:01 ranged by peptide exchange yield, β2m ELISA. From the text: Candidate peptides for T cell based therapies according to the present invention were further tested for their MHC binding capacity (affinity). The individual peptide-MHC complexes were produced by UV-ligand exchange, where a UV-sensitive peptide is cleaved upon UV-irradiation, and exchanged with the peptide of interest as analyzed. Only peptide candidates that can effectively bind and stabilize the peptide-receptive MHC molecules prevent dissociation of the MHC complexes. To determine the yield of the exchange reaction, an ELISA was performed based on the detection of the light chain (β2m) of stabilized MHC complexes. The assay was performed as generally described in Rodenko et al. (Rodenko et al., 2006).
96 well MAXISorp plates (NUNC) were coated over night with 2 ug/ml streptavidin in PBS at room temperature, washed 4× and blocked for 1 h at 37° C. in 2% BSA containing blocking buffer. Refolded HLA-A*02:01/MLA-001 monomers served as standards, covering the range of 15-500 ng/ml. Peptide-MHC monomers of the UV-exchange reaction were diluted 100 fold in blocking buffer. Samples were incubated for 1 h at 37° C., washed four times, incubated with 2 ug/ml HRP conjugated anti-μ2m for 1h at 37° C., washed again and detected with TMB solution that is stopped with […]. Absorption was measured at 450 nm. Candidate peptides that show a high exchange yield (preferably higher than 50%, most preferred higher than 75%) are generally preferred for a generation and production of antibodies or fragments thereof, and/or T cell receptors or fragments thereof, as they show sufficient avidity to the MHC molecules and prevent dissociation of the MHC complexes.
MHC class I binding scores. Binding of HLA-class I restricted peptides to HLA-A*02:01 was ranged by peptide exchange yield: ≥10%=+; ≥20%=++; ≥50=+++; >75%=++++
Turning to “63 (SVTGIIVGV; listed as Homo sapiens) [compound 63]”, the “Peptide exchange (MHC class I binding score)” value (“Peptide exchange” below) is recorded as ““++++” (>75%=++++)”.

For “64 (TLFSEPKFAQV; listed as Homo sapiens) [compound 64]”, the “Peptide exchange” value is reported as ““++++” (>75%=++++)”.

For the substance “65 (TLNEKLTAL; listed as Homo sapiens) [compound 65]”, the “Peptide exchange” value is on record as ““+++” (≥50=+++)”.

Regarding “67 (VIWGTDVNV; listed as Homo sapiens) [compound 67]”, the “Peptide exchange” value is given as ““++++” (>75%=++++)”.

“68 (VLFDVTGQV; listed as Homo sapiens) [compound 68]”: the “Peptide exchange” value is given as ““+++” (≥50=+++)”.

Regarding “69 (VLFSGSLRL; listed as Homo sapiens) [compound 69]”, the “Peptide exchange” value is ““+++” (≥50=+++)”.

“70 (VLGVIWGV; listed as Homo sapiens) [compound 70]”: the “Peptide exchange” value was ““++++” (>75%=++++)”.

“71 (VLLPEGGITAI; listed as Homo sapiens) [compound 71]”: the “Peptide exchange” value is listed as ““+++” (≥50=+++)”.

Take “72 (VMASPGGLSAV; listed as Homo sapiens) [compound 72]”: the “Peptide exchange” value was ““+++” (≥50=+++)”.

On to “73 (VMVDGKPVNL; listed as Homo sapiens) [compound 73]”, for which the “Peptide exchange” value is on record as ““++++” (>75%=++++)”.

For the substance “74 (YIDKDLEYV; listed as Homo sapiens) [compound 74]”, the “Peptide exchange” value is reported as ““+++” (≥50=+++)”.

Turning to “77 (RLFPGSSFL; listed as Homo sapiens) [compound 77]”, the “Peptide exchange” value was ““++++” (>75%=++++)”.

With “78 (SLQDTEEKSRS; listed as Homo sapiens) [compound 78]”, the “Peptide exchange” value is reported as ““+++” (≥50=+++)”.

Regarding “79 (VVYEGQLISI; listed as Homo sapiens) [compound 79]”, the “Peptide exchange” value is listed as ““+++” (≥50=+++)”.

With “80 (LLPGTEYVVSV; listed as Homo sapiens) [compound 80]”, the “Peptide exchange” value is reported as ““+++” (≥50=+++)”.

In the case of “81 (VVYDDSTGLIRL; listed as Homo sapiens) [compound 81]”, the “Peptide exchange” value was ““+++” (≥50=+++)”.

Consider “82 (ALIAEGIAL; listed as Homo sapiens) [compound 82]”, for which the “Peptide exchange” value was ““+++” (≥50=+++)”.

For “83 (ALSKEIYVI; listed as Homo sapiens) [compound 83]”, the “Peptide exchange” value was ““+++” (≥50=+++)”.

Regarding “84 (FILPIGATV; listed as Homo sapiens) [compound 84]”, the “Peptide exchange” value was ““++++” (>75%=++++)”.

“85 (FLSDGTIISV; listed as Homo sapiens) [compound 85]”: the “Peptide exchange” value is ““++++” (>75%=++++)”.

Turning to “86 (GLGDFIFYSV; listed as Homo sapiens) [compound 86]”, the “Peptide exchange” value is on record as ““++++” (>75%=++++)”.

On to “87 (GLLPALVAL; listed as Homo sapiens) [compound 87]”, for which the “Peptide exchange” value is ““+++” (≥50=+++)”.

For the substance “88 (IIDDTIFNL; listed as Homo sapiens) [compound 88]”, the “Peptide exchange” value is given as ““+++” (≥50=+++)”.

“89 (KLADIQIEQL; listed as Homo sapiens) [compound 89]”: the “Peptide exchange” value is ““+++” (≥50=+++)”.

“90 (KLLTPITTL; listed as Homo sapiens) [compound 90]”: the “Peptide exchange” value is reported as ““+++” (≥50=+++)”.

Turning to “91 (LLFNDVQTL; listed as Homo sapiens) [compound 91]”, the “Peptide exchange” value is on record as ““+++” (≥50=+++)”.

Regarding “92 (YLTNEGIAHL; listed as Homo sapiens) [compound 92]”, the “Peptide exchange” value is recorded as ““++++” (>75%=++++)”.

In the case of “93 (SIDSEPALV; listed as Homo sapiens) [compound 93]”, the “Peptide exchange” value is ““+++” (≥50=+++)”.

Turning to “94 (VMMEEFVQL; listed as Homo sapiens) [compound 94]”, the “Peptide exchange” value is ““+++” (≥50=+++)”.

On to “95 (ALADDDFLTV; listed as Homo sapiens) [compound 95]”, for which the “Peptide exchange” value is ““+++” (≥50=+++)”.

As for “96 (ALAPATGGGSLLL; listed as Homo sapiens) [compound 96]”, the “Peptide exchange” value was ““+++” (≥50=+++)”.

For the substance “97 (ALDDMISTL; listed as Homo sapiens) [compound 97]”, the “Peptide exchange” value is on record as ““+++” (≥50=+++)”.

For the substance “98 (ALDQKVRSV; listed as Homo sapiens) [compound 98]”, the “Peptide exchange” value is recorded as ““++” (≥20%=++)”.

Consider “99 (ALESFLKQV; listed as Homo sapiens) [compound 99]”, for which the “Peptide exchange” value is ““+++” (≥50=+++)”.

For the substance “100 (ALFGAGPASI; listed as Homo sapiens) [compound 100]”, the “Peptide exchange” value is reported as ““+++” (≥50=+++)”.

Take “101 (ALVEENGIFEL; listed as Homo sapiens) [compound 101]”: the “Peptide exchange” value was ““+++” (≥50=+++)”.

Regarding “102 (ALYPGTDYTV; listed as Homo sapiens) [compound 102]”, the “Peptide exchange” value was ““+++” (≥50=+++)”.

Consider “103 (AVAAVLTQV; listed as Homo sapiens) [compound 103]”, for which the “Peptide exchange” value is given as ““+++” (≥50=+++)”.

Turning to “104 (FLQPDLDSL; listed as Homo sapiens) [compound 104]”, the “Peptide exchange” value is recorded as ““+++” (≥50=+++)”.

For the substance “105 (FLSEVFHQA; listed as Homo sapiens) [compound 105]”, the “Peptide exchange” value was ““+++” (≥50=+++)”.

On to “106 (FVWSGTAEA; listed as Homo sapiens) [compound 106]”, for which the “Peptide exchange” value is reported as ““+++” (≥50=+++)”.

With “107 (FVYGGPQVQL; listed as Homo sapiens) [compound 107]”, the “Peptide exchange” value is listed as ““+++” (≥50=+++)”.

Regarding “109 (ILASVILNV; listed as Homo sapiens) [compound 109]”, the “Peptide exchange” value is on record as ““++++” (>75%=++++)”.

For “110 (ILLTGTPAL; listed as Homo sapiens) [compound 110]”, the “Peptide exchange” value is listed as ““+++” (≥50=+++)”.

Take “111 (LLLAAARLAAA; listed as Homo sapiens) [compound 111]”: the “Peptide exchange” value is ““+++” (≥50=+++)”.

With “112 (LLSDVRFVL; listed as Homo sapiens) [compound 112]”, the “Peptide exchange” value is reported as ““+++” (≥50=+++)”.

As for “113 (LMMSEDRISL; listed as Homo sapiens) [compound 113]”, the “Peptide exchange” value was ““+++” (≥50=+++)”.

Consider “114 (SLFPHNPQFI; listed as Homo sapiens) [compound 114]”, for which the “Peptide exchange” value is given as ““+++” (≥50=+++)”.

Regarding “115 (SLMDPNKFLLL; listed as Homo sapiens) [compound 115]”, the “Peptide exchange” value is recorded as ““+++” (≥50=+++)”.

In the case of “116 (SMMDPNHFL; listed as Homo sapiens) [compound 116]”, the “Peptide exchange” value was ““++++” (>75%=++++)”.

Regarding “117 (SVDGVIKEV; listed as Homo sapiens) [compound 117]”, the “Peptide exchange” value was ““+++” (≥50=+++)”.

Regarding “118 (TLWYRPPEL; listed as Homo sapiens) [compound 118]”, the “Peptide exchange” value is ““+++” (≥50=+++)”.

“119 (VLGDDPQLMKV; listed as Homo sapiens) [compound 119]”: the “Peptide exchange” value is listed as ““+++” (≥50=+++)”.

Take “121 (YLDEDTIYHL; listed as Homo sapiens) [compound 121]”: the “Peptide exchange” value is on record as ““++” (≥20%=++)”.

With “122 (MQAPRAALVFA; listed as Homo sapiens) [compound 122]”, the “Peptide exchange” value was ““++++” (>75%=++++)”.

Consider “123 (KISTITPQI; listed as Homo sapiens) [compound 123]”, for which the “Peptide exchange” value is listed as ““++” (≥20%=++)”.

For the substance “124 (ALFEESGLIRI; listed as Homo sapiens) [compound 124]”, the “Peptide exchange” value is on record as ““+++” (≥50=+++)”.

Take “125 (ALLGKLDAINV; listed as Homo sapiens) [compound 125]”: the “Peptide exchange” value is ““+++” (≥50=+++)”.

Regarding “126 (ALLSLDPAAV; listed as Homo sapiens) [compound 126]”, the “Peptide exchange” value is ““++++” (>75%=++++)”.
